Data set [1] can be described thus: Leaching test: leakage (membrane disruptive function). The data set is classed as biochemical. The conditions noted are these: sample not acid-aggregated.
Method: Herein, the term “membrane disruptive function” means a function of causing leakage in a leaching test. Herein, the leaching test in the present specification is a test in which liposomes (dispersion) including an aqueous solution containing a quenching substance and a fluorescent substance, and an evaluation sample dispersion such as a solution containing a complex (aggregate of a pH sensitive carrier supporting a physiologically active substance) are added to an aqueous solution whose pH is adjusted to a predetermined level, followed by incubating the aqueous solution at 37° C. for 90 minutes or 30 minutes and measuring the fluorescence of the aqueous solution. According to this method, an amount of a fluorescent substance leached out from the liposomes can be measured, from which the liposome membrane disruptive function of the complex can be confirmed.
Herein, the expression “to develop a membrane disruptive function promoting effect” means to satisfy both of requirements (1) and (2): (1) in the leaching test, a leakage at a predetermined pH that is less than a physiological pH increases compared to a leakage at the physiological pH and the amount of increase is larger than the amount of increase in a case where the pH sensitive compound alone is subjected to the test; and (2) in the leaching test at a predetermined pH less than the physiological pH, a leakage of the complex is more than the sum of a leakage of the pH sensitive compound alone and a leakage of the amphipathic substance alone. More specifically, to develop a membrane disruptive function promoting effect means that, in the leaching test at a pH of 7.4 and at a pH of 5.0 or 4.5, a leakage Lc of the complex, a leakage La of the pH sensitive compound alone, and a leakage Lb of the amphipathic substance alone satisfy both the following relations. That is, the above (1) is represented by the following Formula (1) and the above (2) is represented by the following Formula (2). […]
3,000 nmol of EYPC (egg yolk phosphatidylcholine) dissolved in chloroform was measured and introduced into a 10-mL pear-shaped flask, and a thin film was produced using a rotary evaporator (BuCHI). […]
Meanwhile, the case of an EYPC liposome dispersion liquid only was designated as 0%, the value obtained in a case in which 30 μL of Triton-X100 diluted to ten time was added was designated as 100%, and the leakage was calculated.
Specifically, the leakage was calculated according to the following formula 4. In the following formula, the fluorescence intensity thus measured was designated as L, the fluorescence intensity of only the EYPC liposome dispersion liquid encapsulating a fluorescent substance was designated as L0, and the fluorescence intensity in the case of having Triton-X100 added thereto was designated as L100.
Data set [2] is described as follows: Integration of peptide with pH sensitive carrier: absorbance at 750 nm (Lowry kit), 0.22-μm filtration. The class given is physicochemical. The conditions noted are these: for peptide-derived absorbance: mixed liquid with the pH sensitive carrier at a neutral pH; for absorbance of the solution after filtration: pH lowered to obtain an aggregate of the pH sensitive carrier. The procedure: (§1) When a liquid including the complex obtained as described above is treated with a filter (for example, having a pore size of 0.22 μm), and the concentrations of the physiologically active substance before and after a filtration treatment are measured, the integration ratio of the physiologically active substance (proportion of the amount of the physiologically active substance incorporated into an aggregate of the pH sensitive carrier with respect to the total amount of the physiologically active substance added) can be checked. Here, the concentration of the physiologically active substance can be measured by any known method. Meanwhile, in the present specification, the integration efficiency of the physiologically active substance is defined as a value calculated by the following formula 3 based on the measurement of the absorbance before and after a filtration treatment. At this time, the absorbance may be measured at a wavelength corresponding to the absorption wavelength range of the physiologically active substance (for example, 280 nm in the case of a protein or a peptide, and 260 nm in the case of a nucleic acid). Alternatively, the liquid is colored using a commercially available quantification kit, and then the absorbance may be measured at a wavelength that is recommended by the protocol of the kit.
(§2) Integration efficiency of physiologically active substance (%)=[(Absorbance before filtration treatment−Absorbance after filtration treatment)/(Absorbance before filtration treatment)]×100 (Formula 3)
[…] and […] were used as peptides, and the concentration of the peptide was adjusted to 0.8 mg/mL. […] The pH at the time of preparing an aggregate of the pH sensitive carrier was adjusted to 4 using 1 N sulfuric acid. The time for standing was set to 2 hours. The mixed liquid was passed through a 0.22-μm filter, the liquid before and after filtration was colored using a peptide quantification kit (Lowry kit, manufactured by NACALAI TESQUE, INC.), and measurement of the absorbance at a wavelength of 750 nm was carried out.

Data set [3] can be described thus: Integration of OVA with pH sensitive carrier: absorbance at 595 nm (CBB) before and after 0.22-μm filtration. The data set is classed as physicochemical. As to conditions: for integration efficiency for OVA based on the change in the absorbance: DLPC 1,000 nmol in 1 mL. The protocol: as §1, §2
2. Next, separation of the protein was checked. PBS at pH 7.4 containing OVA was passed through a 0.22-μm filter similarly to the previous operation. The liquid before and after the filtration treatment was colored using a protein quantification kit (protein assay CBB solution, manufactured by NACALAI TESQUE, INC.), and measurement of the absorbance at a wavelength of 595 nm was performed. […] Meanwhile, the absorbance was converted to concentration using a calibration curve, and while the OVA concentration before filtration was 0.81 mg/mL, the OVA concentration after filtration was 0.79 mg/mL. The concentrations thus obtained were consistent with the feed concentration (FIG. 3B). It was confirmed that free OVA all escaped without being captured by the filtration. Therefore, it was considered that integration of the aggregate of the pH sensitive carrier and the protein can be evaluated by measuring the protein concentrations before and after passage through a filter (pore diameter 0.22 μm).
OVA was mixed with a dispersion liquid of the pH sensitive carrier, and a mixed liquid was prepared. Subsequently, the mixed liquid was passed through a filter by a test method similar to section 2. of Experiment 2, and the change in the absorbance (corresponding to the OVA concentration) before and after a filtration treatment was investigated. […]

The mark [4] stands for this setting: aggregate of DLPC-deoxycholic acid carrier, pH 4, 2 hours.
Where [5] appears, read: OVA 0.8 mg/mL, 1,000 nmol amphiphilic substance and 1,600 nmol pH sensitive compound in 1 mL, pH 4, 1 hour, listed as OVA only.
[6] abbreviates: PBS at pH 7.4, no carrier, from calibration curve.

“And” between values parts separate entries of the source, which are not always exact repeats. Equal entries are not always repeated.

Consider `CCCCCCCCCCCC(=O)OC[C@H](COP(=O)([O-])OCC[N+](C)(C)C)OC(=O)CCCCCCCCCCC` [DLPC alone, 1,2-dilauroyl-sn-glycero-3-phosphatidylcholine], for which the Leakage in data set [1] (leaching test at pH 5.0) is 2.587% and 4.587%; in data set [1] (leaching test at pH 7.4), 1.188% and 2.688%.

On to RGPESRLL, for which, in data set [2] (RGPESRLL), the peptide-derived absorbance was 1.40 and the “absorbance of the solution after filtration” value was 0.82. Further, in data set [2] (setting [4]), the “integration efficiency of the RGPESRLL peptide based on the change in absorbance” value is “about 41%”.

For the molecule SIINFEKL, the “integration efficiency of the SIINFEKL peptide based on the change in absorbance” value in data set [2] (setting [4]) is recorded as “about 27%”. Also, in data set [2], the peptide-derived absorbance was found to be 0.44 and the “absorbance of the solution after filtration” value was determined as 0.32.

B1: OVA: Model protein: OVA (molecular weight 45 kDa, manufactured by Sigma-Aldrich Corp.) (protein, UniProt P01012 2-386, looked up)
Ovalbumin: GSIGAASMEFCFDVFKELKVHHANENIFYCPIAIMSALAMVYLGAKDSTRTQINKVVRFDKLPGFGDSIEAQCGTSVNVHSSLRDILNQITKPNDVYSFSLASRLYAEERYPILPEYLQCVKELYRGGLEPINFQTAADQARELINSWVESQTNGIIRNVLQPSSVDSQTAMVLVNAIVFKGLWEKAFKDEDTQAMPFRVTEQESKPVQMMYQIGLFRVASMASEKMKILELPFASGTMSMLVLLPDEVSGLEQLESIINFEKLTEWTSSNVMEERKIKVYLPRMKMEEKYNLTSVLMAMGITDVFSSSANLSGISSAESLKISQAVHAAHAEINEAGREVVGSAEAGVDAASVSEEFRADHPFLFCIKHIATNAVLFFGRCVSP
For B1, in data set [3] (setting [5]), the “Absorbance after filtration (corresponding to the OVA concentration)” value is 0.651 and 0.533; the “Absorbance before filtration (corresponding to the OVA concentration)” value was 0.661 and 0.588. Also, in data set [3] (setting [6]), the “OVA concentration after filtration” value is recorded as 0.79 mg/mL and the “OVA concentration before filtration” value is on record as 0.81 mg/mL. The “Absorbance at 595 nm before filtration” value in data set [3] (PBS at pH 7.4 containing OVA, no carrier) was 0.616. In addition, the “Absorbance at 595 nm after filtration” value in data set [3] (PBS at pH 7.4 containing OVA, no carrier, 0.22-μm filter) amounted to 0.601. Besides, the “integration efficiency for OVA based on the change in the absorbance” value in data set [3] (carrier with deoxycholic acid 400 nmol/mL, pH 4) was “about 42%”. The “integration efficiency for OVA based on the change in the absorbance” value in data set [3] (carrier with deoxycholic acid 1,600 nmol/mL, pH 4) is on record as “about 60%”. For the same molecule, in data set [3] (carrier with deoxycholic acid 6,400 nmol/mL, pH 4), the “integration efficiency for OVA based on the change in the absorbance” value is listed as “about 64%”.

(Values after patent US20210145750A1, “COMPLEX, pH SENSITIVE COMPOSITION INCLUDING COMPLEX, AND METHOD FOR PRODUCING COMPLEX” (TERUMO KABUSHIKI KAISHA, priority 2017, published 2021).)
